The values below are quoted from earlier work in PMC9101112.

Assay in all cases: enzyme inhibition
Data set [1] concerns the target Ile-Val-Tyr-Pro-Trp.
The target of data set [2] is tynorphin.
Data set [3] has as its target Trp-Val-Tyr-Pro-Trp.
Data set [4] concerns the target spinorphin (Bos taurus).
Data set [5] deals with valorphin (Bos taurus).

Usually Ki stands for a measure of affinity in units of concentration, obtained from inhibition or displacement. For DPP III (from UniProt O55096), the results for the Ki in data set [1], in data set [2] and in data set [3] were 0.1 µM, 2.67 µM and 0.126 µM, respectively.
As to DPP III (from UniProt Q9NY33), the inhibitory constant (Ki) in data set [4] is 2.42 µM; in data set [5], 0.049 µM.
